assay: yeast display, Sf9 membrane polyspecificity reagent, FACS + sequencing; frameworks hold sequencing errors
Summary of the method: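 A synthetic nanobody library was expressed on Saccharomyces cerevisiae BJ5465 by galactose induction for 36–48 hours. The library was stained for 1 hour at 4 °C with 10% biotinylated, detergent-solubilized Sf9 membrane reagent and enriched with streptavidin microbeads before FACS. Low and high (top ~1%) gates were set on anti-HA fluorescence for expression and streptavidin fluorescence for reagent binding, and each polyreactivity label reflects the gate of origin.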

| Sequence | polyreactivity (PSR sort gate) |
| --- | --- |
| QVHLVESGGGLVQAGGSLRLSCAASGRTFYGYDMGWYRQAPGKERELVATISSGGSTNYADSVKGRFTISRDYAKNTVYLQMNSLKPEDTAVYYCNADSYEYPSPYRYYYLGYDYWGQGTQVTVSS | low polyreactivity |
| QVHLVESGGGLVQAGGSLRLSCAASGRTFYSNAMGWYRQPPGKERELVAAINSGGDTYYADSVKGRFTISRDNAKNTVYLQMNSLTPEDTAVYYCADDYYWEMDSWGQGTQVTVSS | low polyreactivity |
| QVHLVESGGGLVQAGGSLRLSCAASGSIFAVYAMGWYRQEPGKERELVAVITRSGGSTYYADSVKGRFTISRDNAKKTVYLQLYSLKPEDTAVYYCAARSSYLLRYDYWGQGTQVTVSS | high polyreactivity |
| QVHLVESGGGLVQAGGSLRLSCAASGSIFDVNAMGWYRQSPGKERELVASIDNSGTTNYADSVKGRFTISRDNAKNTVYLLMNSLKPEDTAVYYGAAEYESGDYWGQGTQVTVSS | low polyreactivity |
| QVHLVESGGGLVQAGGSLRLSCAASGSIFDYYDMGWYRQAPGKERELVASITWSGGRTSYADSVKGRFTISRDNAKNTVYLQMNSLKPEDNAVYYCNARGFRGEYDYWVQGTQVTVSS | high polyreactivity |
| QVHLVESGGGLVQAGGSLRLSCAASGSIFGTYAMGWYRQPPGKESELVAAITSSGGSTYYADSVKGRFTISRDNAKNTVYLQMNSLKPEDTAVYYCAAYLRIRVGVPVRTYYYWGQGTQVTVSS | high polyreactivity |
| QVHLVESGGGLVQAGGSLRLSCAASGSIFKPYAMGWYRKAPGKERELVAAISGIGGSTYYADSVKGRFTISRDNAKNTVYLQMNSLKPEDTAVYYCAADTFFKIFSEYNYCGQGTQVTVSS | high polyreactivity |
| QVHLVESGGGLVQAGGSLRLSCAASGSIFRYYAMGCYRQAPGKERELVAGITWSSGSTYYADYVKGRFTISRDKAKNTVYFQMNSLKPEDTAVSYCIADPANPFVTEFEYWGQGNQVTVSS | high polyreactivity |
| QVHLVESGGGLVQAGGSLRLSCAASGSIFSDYAMGWYRQAPGKERELVAAITWSGGSTYYADSVKGRFTISRDNAKNTVYLQMNSLKPEDTAVYYCAARFGKVRDFRYAYLLEYDYWGQGTQVTVSS | low polyreactivity |
| QVHLVESGGGLVQAGGSLRLSCAASGSIFSVNDMGWYRQAPGKERELVAAISSGGSTNYADSVKGRFTISRDNAKNTVSLQMNSLKPEDTAVYYCAADFYVVYWGTYSVGYDYWGQGTQVTVSS | low polyreactivity |
| QVHLVESGGGLVQAGGSLRLSCAASGSIFTRYTMGWYRQAPGKERELVAAITRSGGSTYYADSVKGRFTISRDNAKNTVYLQMNSLKPEDTAVYYCAARVRLATGARDYWGQGTQVTVSS | high polyreactivity |
| QVHLVESGGGLVQAGGSLRLSCAASGSIFVAYAMGWYRQAPGKERELVAAISSSGGTTYYADSVKGRFTISRDNAMNTVYLQMNSLKPEDTAVYYCAARDYKFYYWGQGSQVTVSS | high polyreactivity |
| QVHLVESGGGLVQAGGSLRLSCAASGSIFYVYAMGWYRQAPGKERELVAAITSSGTTNYADSVKGRFTISRDNAKNTVYLQMNSLKPEDTAVYYCAADPDSGQVPFDYWGQGTQVTVSS | low polyreactivity |
| QVHLVESGGGLVQAGGSLRLSCAASGSIFYVYAMVWYRQAPGKERELVAAITWSGGSTYYADSVKGRFTISRDNAKNTVYLQMNSLNPEDTAVYYCAADEGYDYPYYYWGQGTQVSVSS | high polyreactivity |
| QVHLVESGGGLVQAGGSLRLSCAASGSIFYYYAMGWYRQAPGKEREFVAAINWSGGITYYADSVKGRFTISRDNAKNTVYLQMNSLKPEDTAVFYCAAPVRGYSYGKYDYWGQGTQVTVSS | high polyreactivity |
| QVHLVESGGGLVQAGGSLRLSCAASGSIIGKYAMGWYRQAPGKERELVADITNSGGSTYYADSVKGRFTISRDNAKNTVYLQMNSLKPEDTAVYYCAADYLYPPYYEFYFWGQGTQVTVSS | low polyreactivity |

| Sequence | polyreactivity (PSR sort gate) |
| --- | --- |
| QVHLVESGGGLVQAGGSLRLSCAASGSILARYAMGWYRQAPRKERELVASITTSGDSTYYADSVKGRFTISRDNAKNTVSLQMNSLIPEDTAVYYCARRRWGWGYQHFPYYYWGQGTQVTVSS | high polyreactivity |
| QVHLVESGGGLVQAGGSLRLSCAASGSILDEYAMGWYRQPPGKESELVAAISSSGTSTYYADSVKRRFTISRDNAKNTDYLQMNSLKPEDTAVYDCARVKQHRSHRVPGDDYWGQGTQVTVSS | low polyreactivity |
| QVHLVESGGGLVQAGGSLRLSCAASGSIYHGNAMGWYRQAPGKERELVATISSGGSTYYADSLKVRFTISRDNAKNTVYLQMNSLKPEDTAVYYCAAERFWPYKSYYRGQGTQVTVSS | low polyreactivity |
| QVHLVESGGGLVQAGGSLRLSCAASGSIYVNTMGWYRPAPGKERELVAGISRSTGRTYYADSVKGRFTISRDNAKNTVYLQMNSLKPEDTAVYYCNTVPWRRWGYDYWGQGTQVTVSS | high polyreactivity |
| QVHLVESGGGLVQAGGSLRLSCAASGSLFYYNAMGWYRPAPGKERDLVAAINSNGGSTYYADTVKGRFTISRDNAKNTVYLQMNSLKPEDTAVYSSAAKYYFNWHRQGYDYWGQGTQVTVSS | high polyreactivity |
| QVHLVESGGGLVQAGGSLRLSCAASGSTCYWYTMGWYRKAPGKERELVARISSSGSTNYADSVKGRFTISRDNEKNTVYLLMNILKAEDTAVYYCNIDWFYRGYDYWGQGTQVTVSS | high polyreactivity |
| QVHLVESGGGLVQAGGSLRLSCAASGSTFDVYAMGWYRQAPRKERELVAVINTSGTRTYYADSVKGRFTISRDNAKNSVYLLMNSLKPEDTAVSYCNAGGNLEMIYWGQGTQVTVSS | low polyreactivity |
| QVHLVESGGGLVQAGGSLRLSCAASGSTFETNAMGWYRQSPGKERELVAAIRWSTGNTYYADSVKGRFTISRDNAKNTVYLQMNSLKPEDTAVYYCAAYKGKHYKEGYWGQGTQVTVSS | low polyreactivity |
| QVHLVESGGGLVQAGGSLRLSCAASGSTFFQYAMGWYRQAPGKERELVAAISSRGGRTYYADSVKGRFTISRDNAKNTVYLQMNRLKPEDTAVYYCATNRSVSYPYDGYYYWGQGTQVTVSS | high polyreactivity |
| QVHLVESGGGLVQAGGSLRLSCAASGSTFKRNAMGWYRQAPGKERELVAAITQRGGRTYYADSVKGRFTISRDNAKNTVYLQMNSLKPEDTAVYYCAVDSQTANDYDYWGQGTEVTVSS | low polyreactivity |
| QVHLVESGGGLVQAGGSLRLSCAASGSTFLYYAMGWYRQAPGKERELVAAISSSGGRTYYADSVKGRFTISRDNAKNTVYLQMNSLKPEDTAVYYCAADGRRTSKAGYYYWGQGTQVTVSS | high polyreactivity |
| QVHLVESGGGLVQAGGSLRLSCAASGSTFQWYAMGWYIQAPGKERELVATISYTGGSRTYYADSVKGRFTNSRDNAKNTVYLQMNSLKPEDTAVYDCAAESNQLFYFRRFDFWGQGTQVTVSS | low polyreactivity |
| QVHLVESGGGLVQAGGSLRLSCAASGSTFRHYAMGWYRQAPGKERELVAAISSRGGRTYYADSVKGRFTISRDNAKNTGYLQMNSQKPEDTAVYYCAADRFRLYVGGWWYDYWRQGTQVTVSS | high polyreactivity |
| QVHLVESGGGLVQAGGSLRLSCAASGSTFSIYTMGWYRQAPGKERELVAVITKSGGSTYYADSLKGRFTISRDNAKNTVYLQMISLKPEDIAVYYCAARRRGARHDYWGQGTQVTVSS | high polyreactivity |
| QVHLVESGGGLVQAGGSLRLSCAASGSTFSSYAMGWYRQAPGKERELVAAINWSGTRTYYADSVKGRFTISRDNAKNTVYLQMNSLKPEDTAVYYCAAPGDGETADYDYWGQGTQVTVSS | low polyreactivity |
| QVHLVESGGGLVQAGGSLRLSCAASGSTFTYYAMGWYRQAPGKERELVAAITSGGSTNYADSVKGRFTISRDNAKNTVYLQMNSLKPEDTAVYYCAGDGQNFQFYVVSEEYDYWGQGTQVTVSS | low polyreactivity |
